Assay results: paper PMC8427231, “Mechanism of dimerization and structural features of human LI-cadherin” (The Journal of Biological Chemistry, 2021)

B1: human LI-cadherin EC1-4 [modified: N-glycans (four modelled on chain A, two on chain B of the crystal structure; sites not printed); N-glycans (four modelled on chain A, two on chain B of the crystal structure; sites not … (parent)
chain: QEGKFSGPLKPMTFSIYEGQEPSQIIFQFKANPPAVTFELTGETDNIFVIEREGLLYYNRALDRETRSTHNLQVAALDANGIIVEGPVPITIKVKDINDNRPTFLQSKYEGSVRQNSRPGKPFLYVNATDLDDPATPNGQLYYQIVIQLPMINNVMYFQINNKTGAISLTREGSQELNPAKNPSYNLVISVKDMGGQSENSFSDTTSVDIIVTENIWKAPKPVEMVENSTDPHPIKITQVRWNDPGAQYSLVDKEKLPRFPFSIDQEGDIYVTQPLDREEKDAYVFYAVAKDEYGKPLSYPLEIHVKVKDINDNPPTCPSPVTVFEVQENERLGNSIGTLTAHDRDEENTANSFLNYRIVEQTPKLPMDGLFLIQTYAGMLQLAKQSLKKQDTPQYNLTIEVSDKDFKTLCFVQINVID

Variants of: B1
Assay: SEC-MALS
Conditions: with itself; injected at 100 μM; read off a plot

Variant	screen value [kDa]
chain 1 F354A	55.1
chain 1 I147A	50.5
chain 1 L149A	51.1
chain 1 F202A	49.5
chain 1 L333A	54.8
chain 1 N154A	53.1

More lines, now with the values ahead:

screen value [kDa]	Variant
52.2	chain 1 N200A
52.7	chain 1 Q382A
51.5	chain 1 V188A
52.4	chain 1 N349A
53.6	chain 1 Y377A

Same assay, conditions: with itself; injected at 50 μM; read off a plot

screen value [kDa]	Variant
58	chain 1 F202A
